One assay addresses Cyno CD3εδ (cynomolgus monkey). Nature of the assay: SPR, sensorgrams at 3-100 nM; set-up not given. For orientation: In SPR one partner is held on a chip, and binding of the other changes the refractive index at the surface.
Assay [1] has as its target T1, CD3 epsilon N-terminal peptide (SEQ ID NO:13) (human and cynomolgus monkey (first …)).
T1 construct: also called CD3 peptide; CD3 epsilon peptide
T1 peptide: [pGlu]DGNEEMGGITQTPYK
Nature of the assay: SPR on a CD3 peptide, concentration series 3-300 nM (sensorgrams in FIG. 25B).

Assay [2] deals with T1, CD3 epsilon N-terminal peptide (SEQ ID …). The experiment in a line: SPR on a CD3 peptide, concentration series 3-300 nM.
For assay [3] the target is unchanged. The assay is described as above.
For assay [4] the target is unchanged. The experiment in a line: SPR on a CD3 peptide, concentration series 3-300 nM (sensorgrams in FIG. 25A).
The target is the same in assay [5]. The experiment in a line: SPR on a CD3 peptide, concentration series 3-300 nM.
For assay [6], the target named is T2, recombinant human CD3epsilon/CD3gamma extracellular domain fused with human IgA1.Fc (human).
T2 construct: also called human CD3e/CD3g proteins; human CD3 proteins
Nature of the assay: SPR, Biacore T200: human CD3-IgA immobilised on a CM5 chip, antibody as analyte. The procedure:
Binding affinities for the different antibodies of interest were measured by surface plasmon resonance (SPR), using a Biacore T200 (GE Healthcare). Human CD3-IgA was immobilized to 200 RU on a CM5 (GE Life Sciences) chip using NHS chemistry. Analytes (CD3 antibodies) were diluted 2× in concentrations (from 12.5 nM to 0.125 nM) and flown over chip at a flow rate of 30 µl/min with HBS-EP+ buffer. Data were analyzed using Biacore T200 Evaluation software v3.0.

Read-outs that look alike come from different tables or passages of the source. Where no end group is shown, it is not given here. [ ]: non-standard residue; d: D form. pGlu = O=C1CC[C@@H](C(=O)O)N1

Cyno CD3εδ (cynomolgus monkey), sequence (Q95LI5 22-117, stated change not applied, chain 1 of 2): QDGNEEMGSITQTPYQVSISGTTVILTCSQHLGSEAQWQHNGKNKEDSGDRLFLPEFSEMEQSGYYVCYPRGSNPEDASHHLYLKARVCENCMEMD
Cyno CD3εδ (cynomolgus monkey), sequence (Q95LI8 22-105, stated change not applied, chain 2 of 2, further chain): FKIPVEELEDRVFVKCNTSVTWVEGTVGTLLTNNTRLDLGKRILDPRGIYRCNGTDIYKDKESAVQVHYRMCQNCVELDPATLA

B1: humanized 26H8 Fab (Fab, V domains shown)
VH: QVQLQESGPGLVKPSETLSLTCTASGYTFTNYYIHWVRQSPGKGLEWIGWIYCGDGSTKFNEQFKDRTTLSADHSKTQASLKLSSVTAADTAIYFCARDWAGSYFFDFWGQGTMVTVSS
VL: DIQMTQSPSSLSASVGDRVTITCKSSQSLLNSRTRKNYLAWYQQKPGKAPKLLIYWASTRESGVPSRFSGSGSGTDFTFTISSLQPEDIATYYCKQSYILRTFGGGTKVEIKR
notes: a Fab; also called h26H8 Fab; h26H8
As for B1, in the assay with Cyno CD3εδ, the dissociation constant Kd turned out to be 36 nM, the koff is 0.031 s⁻¹ and the kon came out at 870000 M⁻¹ s⁻¹. In addition, in assay [1], the equilibrium dissociation constant (Kd) is 51.6 nM, the koff came out at 0.0322 s⁻¹ and the kon was 623000 M⁻¹ s⁻¹.

B2: H26H8 Fab H35F (Fab, V domains shown)
VH: QVQLQESGPGLVKPSETLSLTCTASGYTFTNYYIFWVRQSPGKGLEWIGWIYCGDGSTKFNEQFKDRTTLSADHSKTQASLKLSSVTAADTAIYFCARDWAGSYFFDFWGQGTMVTVSS
VL: DIQMTQSPSSLSASVGDRVTITCKSSQSLLNSRTRKNYLAWYQQKPGKAPKLLIYWASTRESGVPSRFSGSGSGTDFTFTISSLQPEDIATYYCKQSYILRTFGGGTKVEIKR
notes: Fab' fragment; phenylalanine at position 35 of the heavy chain variable domain; also called h26H8 H35F; h26H8 H35F Fab'
In the case of B2, in assay [2], the binding result is reported as “no binding (tested: 300 nM)”.

B3: H26H8 Fab Y33S (Fab, V domains shown)
VH: QVQLQESGPGLVKPSETLSLTCTASGYTFTNYSIHWVRQSPGKGLEWIGWIYCGDGSTKFNEQFKDRTTLSADHSKTQASLKLSSVTAADTAIYFCARDWAGSYFFDFWGQGTMVTVSS
VL: DIQMTQSPSSLSASVGDRVTITCKSSQSLLNSRTRKNYLAWYQQKPGKAPKLLIYWASTRESGVPSRFSGSGSGTDFTFTISSLQPEDIATYYCKQSYILRTFGGGTKVEIKR
notes: Fab' fragment; serine at position 33 of the heavy chain variable domain; also called h26H8 Y33S; h26H8 Y33S Fab'
Regarding B3, in assay [3], the binding result is recorded as “no binding (tested: 300 nM)”.

B4: H26H8 Fab C53S (Fab, V domains shown)
VH: QVQLQESGPGLVKPSETLSLTCTASGYTFTNYYIHWVRQSPGKGLEWIGWIYSGDGSTKFNEQFKDRTTLSADHSKTQASLKLSSVTAADTAIYFCARDWAGSYFFDFWGQGTMVTVSS
VL: DIQMTQSPSSLSASVGDRVTITCKSSQSLLNSRTRKNYLAWYQQKPGKAPKLLIYWASTRESGVPSRFSGSGSGTDFTFTISSLQPEDIATYYCKQSYILRTFGGGTKVEIKR
notes: Fab' fragment; serine at position 53 of the heavy chain variable domain; also called h26H8 C53S
On to B4, for which, in assay [4], the dissociation constant (Kd) is 116 nM, the off-rate (koff) is 0.0658 s⁻¹ and the on-rate (kon) stood at 569000 M⁻¹ s⁻¹.

B5: H26H8 Fab H35Y (Fab, V domains shown)
VH: QVQLQESGPGLVKPSETLSLTCTASGYTFTNYYIYWVRQSPGKGLEWIGWIYCGDGSTKFNEQFKDRTTLSADHSKTQASLKLSSVTAADTAIYFCARDWAGSYFFDFWGQGTMVTVSS
VL: DIQMTQSPSSLSASVGDRVTITCKSSQSLLNSRTRKNYLAWYQQKPGKAPKLLIYWASTRESGVPSRFSGSGSGTDFTFTISSLQPEDIATYYCKQSYILRTFGGGTKVEIKR
notes: Fab' fragment; tyrosine at position 35 of the heavy chain variable domain; also called h26H8 H35Y; h26H8 H35Y Fab'
Consider B5, for which the binding result in assay [5] was “no binding (tested: 300 nM)”.

B6: antibody 3F11 (antibody, V domains shown)
VH: QVQLQQSGPDLVRPGASVKMSCKASGYTFTNYYVHWLNQRPGQGLEWIGWIYPGDGSTKFNEKFKGKTTLTADKSSSTAYILLSSLTSADSAIYFCTRDAGYYFDVWGAGTTVTVSS
VL: DIVMSQSPSSLAVSAGEKVTISCKSSQSLLNNRTRKNYLAWYQQKPGQSPKLLIYWASTRESGVPDRFTGSGSGTDFTLTISSVQAEDLAVYYCKQSYILRTFGGGTKLEIK
notes: Tested as mouse hybridoma antibody (culture supernatant or mAb); also called Clone 3F11
Take B6: in assay [6], the off-rate constant (koff) stood at 0.0034 s⁻¹ and the on-rate constant (kon) was determined as 1.12e+07 M⁻¹ s⁻¹.

B7: mouse antibody 26H8 (antibody, V domains shown)
VH: QVQLQQSGPELVKPGASVRMSCKASGYTFTNYYIHWVRQRPGQGLEWIGWIYCGDGSTKFNEQFKDRTTLTADHSSSTAYMLLSSLTSEDSAIYFCARDWAGSYFFDFWGQGTTLTVSS
VL: DIVMSQSPSSLAVSAGEKVTMSCKSSQSLLNSRTRKNYLAWYQQKPGQSPKLLIYWASTRESGVPDRFTGSGSGTDFTLTISSVQAEDLAVYYCKQSYILRTFGGGTKLEIK
notes: Tested as mouse hybridoma antibody (culture supernatant or mAb); also called Clone 26H8; 261H8
Turning to B7, in assay [6], the koff stood at 0.00062 s⁻¹ and the kon stood at 2.3e+06 M⁻¹ s⁻¹.

By Kd is commonly meant the concentration at which binding is half-saturated. As usually defined, the koff is the rate constant with which the complex falls apart. Broadly, the kon is the second-order rate constant of association.

Source of the values: patent US20240400686A1 (CITY OF HOPE, published 2024).
